From patent EP2213302A2 (Genentech, Inc., dated 2010)

Target: T1, DR4 ECD immunoadhesin (human, UniProt O00220 24-218)
T1 construct: also called DR4-IgG; DR4 ECD-IgG; not shown: CH1, hinge and Fc region of human immunoglobulin G1 heavy chain
Experiment: KinExA equilibrium, antibody in solution with DR4-IgG, DR4-IgG beads

T1 sequence (O00220 other isoform, or with tags, fused parts or gaps): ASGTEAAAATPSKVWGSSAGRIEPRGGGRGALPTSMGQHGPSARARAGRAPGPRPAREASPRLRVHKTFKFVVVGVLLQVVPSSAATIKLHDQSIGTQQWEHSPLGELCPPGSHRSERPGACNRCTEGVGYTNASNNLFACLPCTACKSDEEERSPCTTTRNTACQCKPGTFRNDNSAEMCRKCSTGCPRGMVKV

- Kd: 5 pM
B1: 4H6.17.8 anti-DR4 monoclonal antibody (murine) (antibody, V domains shown)
VH: QVQLKESGPGLVAPSQSLSITCTVSGFSLTSYGVHWVRQPPGKGLEWLGVIWAVGSTNYNSALMSRLSISKDNSKSQVFLKMNSLQTDDTAMYYCAREGEFDYYGSSLLSYHSMNFWGQGTSVTVS
VL: DIQMTQTTSSLSASLGDRVTISCRASQDISNYLNWYQRKPDGTVKLLIYYTSRLHSGVPSRFSGSGSGTDYSLTISNLEQEDIATYFCQQGNTLPFTFGSATKLELT
notes: Murine IgG1 from hybridoma ATCC HB-12455; only the variable domains apply here; the listing has Xaa at 20)
